Assay results: patent publication US12534531 (MacroGenics, dated 2026)
Positions count from the first letter of the chain named.

Key:
[1] = target: T1, soluble human PD-1 (the extracellular domain of human PD-1 fused to a His tag) (human, UniProt Q15116 25-170); assay: Biacore, mAb captured on F(ab)2 goat anti-human Fc, analyte shPD-1 His
T1 construct: also called shPD-1 His; shPD-1-His; not shown: His tag

[2] = target: T2, soluble cynomolgus monkey PD-1 (scyno PD-1 hFc) cleaved to remove Fc portion (cynomolgus monkey, UniProt B0LAJ3 25-170); assay: Biacore, mAb captured on F(ab)2 goat anti-human Fc, analyte scyno PD-1 hFc cleaved of Fc
[3] = target: T3, human PD-1 expressed on the surface of cells (NSO cells expressing human PD-1; MNFAT-luc2/PD-1 Jurkat cells) (human, UniProt Q15116 21-288); assay: FACS saturation binding on NSO cells expressing human PD-1, goat anti-human-APC, MFI, 1:4 dilutions
T3 construct: also called cell surface PD-1; PDCD1 transfected NSO cells expressing PD-1

[4] = target: T3, human PD-1 expressed on the surface of …; assay: FACS blocking on NSO cells expressing human PD-1, 1:4 dilutions, MFI; blocked ligand: biotinylated sPD-L1, streptavidin-PE
[5] = target: T3, human PD-1 expressed on the surface of …; assay: FACS blocking on NSO cells expressing human PD-1, 1:4 dilutions, MFI; blocked ligand: biotinylated sPD-L2, streptavidin-PE
[6] = target: T1, soluble human PD-1 (the extracellular …); assay: ELISA: shPD-1 His coated at 1 ug/ml, goat anti-mouse (H+L)-HRP, RLU
[7] = target: T4, soluble cynomolgus monkey PD-1 (the extracellular domain of cynomolgus monkey PD-1 fused to a human Fc Region) (cynomolgus monkey, UniProt B0LAJ3 25-170); assay: ELISA: scyno-PD-1-TEV-Fc coated at 0.5 ug/ml, goat anti-mouse (H+L)-HRP, RLU
T4 construct: also called scyno-PD1 Fc; scynoPD-1-hFc; not shown: Human Fc Region and any linker or cleavage site between the extracellular domain and the Fc

[8] = target: T1, soluble human PD-1 (the extracellular …); assay: ELISA: shPD-1 His coated at 0.5 ug/ml, goat anti-mouse (H+L)-HRP, RLU
[9] = target: T5, PD-1 on the surface of CD4+ and CD8+ T cells of cynomolgus monkeys (cynomolgus monkey, UniProt B0LAJ3 25-288); assay: flow cytometry competition with labeled hPD-1 mAb 7 (1.2) IgG4 (P) on blood of cynomolgus monkeys given 10 mg/kg
T5 construct: In vivo occupancy read by flow cytometry; also called PD-1+/CD4+ and PD-1+/CD8+ cells

[10] = target: T1, soluble human PD-1 (the extracellular …); assay: Biacore, mAb captured on Protein A, analyte shPD-1 His
[11] = target: T2, soluble cynomolgus monkey PD-1 (scyno …); assay: Biacore, mAb captured on Protein A, analyte scyno PD-1 hFc cleaved of Fc
[12] = target: T4, soluble cynomolgus monkey PD-1 (the …); assay: ELISA: scyno-PD-1-TEV-hFc coated at 1 ug/ml, goat anti-mouse (H+L) detection, RLU
[13] = target: T3, human PD-1 expressed on the surface of …; assay: FACS: biotinylated sPD-L2 on NSO cells expressing human PD-1, streptavidin-PE, MFI

T4 sequence (B0LAJ3 entry or part of it limits assumed): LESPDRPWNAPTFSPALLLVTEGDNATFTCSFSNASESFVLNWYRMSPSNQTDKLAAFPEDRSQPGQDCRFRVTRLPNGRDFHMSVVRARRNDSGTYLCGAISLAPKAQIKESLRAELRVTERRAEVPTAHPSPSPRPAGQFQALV
T3 sequence (Q15116 21-288): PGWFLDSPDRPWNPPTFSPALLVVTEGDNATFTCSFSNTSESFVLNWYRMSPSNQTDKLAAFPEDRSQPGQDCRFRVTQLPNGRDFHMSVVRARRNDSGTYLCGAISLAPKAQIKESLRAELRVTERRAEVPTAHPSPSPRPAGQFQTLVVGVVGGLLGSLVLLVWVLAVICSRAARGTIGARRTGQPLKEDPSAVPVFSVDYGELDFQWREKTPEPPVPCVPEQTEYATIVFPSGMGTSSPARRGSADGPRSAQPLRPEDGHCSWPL
T1 sequence (Q15116 25-170): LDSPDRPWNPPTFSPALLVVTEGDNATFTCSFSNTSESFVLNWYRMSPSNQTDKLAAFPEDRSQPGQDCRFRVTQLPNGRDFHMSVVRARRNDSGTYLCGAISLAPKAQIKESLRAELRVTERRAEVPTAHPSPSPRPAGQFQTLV
T5 sequence (B0LAJ3 entry or part of it limits assumed): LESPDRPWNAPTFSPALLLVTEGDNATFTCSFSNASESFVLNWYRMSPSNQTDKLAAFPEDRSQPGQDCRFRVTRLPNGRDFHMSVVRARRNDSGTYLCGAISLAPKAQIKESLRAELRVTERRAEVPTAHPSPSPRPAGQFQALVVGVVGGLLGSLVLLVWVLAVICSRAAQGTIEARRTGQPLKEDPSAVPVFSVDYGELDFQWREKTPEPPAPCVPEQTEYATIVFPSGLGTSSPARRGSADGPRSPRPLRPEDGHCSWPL

B1: hPD-1 mAb 9 (1.1) IgG4 (P) (antibody)
heavy: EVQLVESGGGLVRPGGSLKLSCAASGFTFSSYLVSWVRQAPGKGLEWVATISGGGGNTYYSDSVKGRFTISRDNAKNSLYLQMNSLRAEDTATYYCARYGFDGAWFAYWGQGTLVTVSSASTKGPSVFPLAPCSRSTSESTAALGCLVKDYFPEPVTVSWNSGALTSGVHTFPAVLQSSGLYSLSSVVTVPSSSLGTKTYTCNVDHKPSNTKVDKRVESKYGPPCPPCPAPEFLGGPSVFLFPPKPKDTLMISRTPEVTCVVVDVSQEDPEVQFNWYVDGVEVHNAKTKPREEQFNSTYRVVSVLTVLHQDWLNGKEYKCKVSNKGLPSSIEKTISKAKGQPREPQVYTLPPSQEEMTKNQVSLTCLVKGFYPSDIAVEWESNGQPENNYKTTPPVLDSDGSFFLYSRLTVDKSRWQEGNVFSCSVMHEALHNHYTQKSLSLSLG
light: DIQMTQSPSSLSASVGDRVTITCRASENIYSYLAWYQQKPGKAPKLLIYNAKTLAAGVPSRFSGSGSGTDFTLTISSLQPEDFATYYCQHHYAVPWTFGQGTKLEIKRTVAAPSVFIFPPSDEQLKSGTASVVCLLNNFYPREAKVQWKVDNALQSGNSQESVTEQDSKDSTYSLSSTLTLSKADYEKHKVYACEVTHQGLSSPVTKSFNRGEC
notes: also called hPD-1 mAb 9 IgG4 (P)
- Kd [1]: 9.5 nM
- Kd [2]: 15.1 nM
- EC50 (read off the curve) [3]: ~0.5 µg/mL
- IC50 (read off the curve) [4]: ~0.03 ug/test
- IC50 (read off the curve) [5]: ~0.1 ug/test

B2: hPD-1 mAb 9 (1.1) IgG1 (AA) (antibody)
heavy: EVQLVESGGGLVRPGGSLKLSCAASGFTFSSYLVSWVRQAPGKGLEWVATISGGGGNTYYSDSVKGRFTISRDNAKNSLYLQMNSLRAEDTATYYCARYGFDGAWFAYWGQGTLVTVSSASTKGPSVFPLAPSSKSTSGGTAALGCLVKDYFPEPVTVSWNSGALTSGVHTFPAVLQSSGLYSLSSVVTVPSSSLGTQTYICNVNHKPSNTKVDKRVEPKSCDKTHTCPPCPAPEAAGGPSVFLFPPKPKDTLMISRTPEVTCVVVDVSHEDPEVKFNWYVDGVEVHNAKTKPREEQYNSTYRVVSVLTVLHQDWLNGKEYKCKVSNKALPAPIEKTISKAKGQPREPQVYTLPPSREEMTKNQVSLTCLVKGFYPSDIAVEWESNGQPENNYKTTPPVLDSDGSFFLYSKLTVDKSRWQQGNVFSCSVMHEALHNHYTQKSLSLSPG
light: B1 light
notes: also called hPD-1 mAb 9 IgG1 (AA)
- Kd [1]: 10.9 nM
- Kd [2]: 9.3 nM
- EC50 (read off the curve) [3]: ~0.2 µg/mL
- IC50 (read off the curve) [4]: ~0.06 ug/test
- IC50 (read off the curve) [5]: ~0.1 ug/test

B3: PD-1 mAb 1 (antibody, V domains shown)
VH: DVQLQESGPGRVKPSQSLSLTCTVTGFSITNDYAWNWIRQFPGNKLEWMGHITYSGSTSYNPSLKSRISITRDTSKNHFFLQLSSVTPEDTATYYCARDYGSGYPYTLDYWGQGTSVTVSS
VL: QIVLTQSPALMSASPGEKVTMTCSATSIVSYVYWYQQKPGSSPQPWIYLTSNLASGVPARFSGSGSGTSYSLTISSMEAEDAATYYCQQWSDNPYTFGGGTKLEIK
notes: Murine monoclonal antibody
- EC50 (read off the curve) [6]: ~0.3 nM
- EC50 (read off the curve) [7]: ~0.3 nM

B4: PD-1 mAb 6 (antibody, V domains shown)
VH: EVKLVESGGGLVNPGGSLKLSCAASGFTFSSYGMSWVRQTPEKRLEWVATISGGGSDTYYPDSVKGRFTISRDNAKNNLYLQMSSLRSEDTALYYCARQKATTWFAYWGQGTLVTVST
VL: not shown
notes: Murine monoclonal antibody
- EC50 (read off the curve) [8]: ~0.3 nM
- binding result [7]: binds

B5: PD-1 mAb A IgG4 (P) (antibody, V domains shown)
VH: QVQLVESGGGVVQPGRSLRLDCKASGITFSNSGMHWVRQAPGKGLEWVAVIWYDGSKRYYADSVKGRFTISRDNSKNTLFLQMNSLRAEDTAVYYCATNDDYWGQGTLVTVSS
VL: EIVLTQSPATLSLSPGERATLSCRASQSVSSYLAWYQQKPGQAPRLLIYDASNRATGIPARFSGSGSGTDFTLTISSLEPEDFAVYYCQQSSNWPRTFGQGTKVEIK
- Kd [2]: 6 nM
- PD-1 binding on CD4+ and CD8+ T cells (% bound, in vivo) [9]: ≥ 80%

B6: PD-1 mAb 9 (antibody, V domains shown)
VH: EVMLVESGGGLVKPGGSLKLSCAASGFTFSSYLVSWVRQTPEKRLEWVATISGGGGNTYYSDSVKGRFTISRDNAKNTLYLQISSLRSEDTALYYCARYGFDGAWFAYWGQGTLVTVSS
VL: DIQMTQSPASLSASVGDIVTITCRASENIYSYLAWYQQKQEKSPQLLVYNAKTLAAGVPSRFSGSGSGTQFSLTINSLQPEDFGNYYCQHHYAVPWTFGGGTRLEIT
notes: Murine monoclonal antibody
- Kd [10]: 9.8 nM
- Kd [11]: 72.7 nM
- EC50 (read off the curve) [6]: ~0.4 nM
- binding result [12]: binds

B7: hPD-1 mAb 7 (1.1) IgG1 (AA) (antibody, V domains shown)
VH: QVQLVQSGAEVKKPGASVKVSCKASGYSFTSYWMNWVRQAPGQGLEWIGVIHPSDSETWLDQKFKDRVTITVDKSTSTAYMELSSLRSEDTAVYYCAREHYGTSPFAYWGQGTLVTVSS
VL: EIVLTQSPATLSLSPGERATLSCRANESVDNYGMSFMNWFQQKPGQPPKLLIHAASNQGSGVPSRFSGSGSGTDFTLTISSLEPEDFAVYFCQQSKEVPYTFGGGTKVEIKR
notes: VH1 with VL1
- EC50 (read off the curve) [3]: ~0.2 µg/mL
- IC50 (read off the curve) [4]: ~0.01 ug/test
- IC50 (read off the curve) [5]: ~0.01 ug/test

B8: PD-1 mAb B IgG4 (P) (antibody, V domains shown)
VH: QVQLVQSGVEVKKPGASVKVSCKASGYTFTNYYMYWVRQAPGQGLEWMGGINPSNGGTNFNEKFKNRVTLTTDSSTTTAYMELKSLQFDDTAVYYCARRDYRFDMGFDYWGQGTTVTVSS
VL: EIVLTQSPATLSLSPGERATLSCRASKGVSTSGYSYLHWYQQKPGQAPRLLIYLASYLESGVPARFSGSGSGTDFTLTISSLEPEDFAVYYCQHSRDLPLTFGGGTKVEIK
- Kd [2]: 4 nM
- PD-1 binding on CD4+ and CD8+ T cells (% bound, in vivo) [9]: ≥ 80%

B9: PD-1 mAb 5 (antibody, V domains shown)
VH: QVQLQQPGVELVRPGASVKLSCKASGYSFTAYWMNWMKQRPGQGLEWIGVIHPSDSETWLNQKFKDKATLTVDKSSSTAYMQLISPTSEDSAVYYCAREHYGSSPFAYWGQGTLVTVSA
VL: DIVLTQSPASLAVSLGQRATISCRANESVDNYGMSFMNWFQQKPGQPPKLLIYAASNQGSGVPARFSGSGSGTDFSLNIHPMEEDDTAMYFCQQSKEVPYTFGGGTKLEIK
notes: Murine monoclonal antibody
- EC50 (read off the curve) [8]: ~0.3 nM
- binding result [7]: binds

B10: PD-1 mAb 7 (antibody, V domains shown)
VH: B9 VH with V9A, A31S, M37V, N61D, S77T, S103T, A119S
VL: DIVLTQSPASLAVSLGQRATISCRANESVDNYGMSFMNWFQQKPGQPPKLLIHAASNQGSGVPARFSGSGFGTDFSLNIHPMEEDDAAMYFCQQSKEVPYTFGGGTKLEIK
notes: Murine monoclonal antibody
- Kd [10]: 1.3 nM
- Kd [11]: 3.5 nM
- EC50 (read off the curve) [8]: ~0.2 nM
- EC50 (read off the curve) [7]: ~0.3 nM

B11: biotinylated-soluble human PD-L2-muIgFc fusion protein (Ancell Cat #573-030) (Fc fusion, UniProt Q9BQ51 20-220, looked up)
chain: LFTVTVPKELYIIEHGSNVTLECNFDTGSHVNLGAITASLQKVENDTSPHRERATLLEEQLPLGKASFHIPQVQVRDEGQYQCIIIYGVAWDYKYLTLKVKASYRKINTHILKVPETDEVELTCQATGYPLAEVSWPNVSVPANTSHSRTPEGLYQVTSVLRLKPPPGRNFSCVFWNTHVRELTLASIDLQSQMEPRTHPT
modifications: biotinylated (site not stated)
notes: Bought reagent; also called shPD-L2; sPD-L2; not shown: murine Ig Fc
- binding result [13]: binds

B12: PD-1 mAb 2 (antibody, V domains shown)
VH: DVQLVESGGGLVQPGGSRKLSCAASGFVFSSFGMHWVRQAPEKGLEWVAYISSGSMSISYADTVKGRFTVTRDNAKNTLFLQMTSLRSEDTAIYYCASLSDYFDYWGQGTTLTVSS
VL: DVVMSQTPLSLPVSLGDQASISCRSSQSLVHSTGNTYLHWYLQKPGQSPKLLIYRVSNRFSGVPDRFSGSGSGTDFTLKISRVEAEDLGVFFCSQTTHVPWTFGGGTKLEIK
notes: Murine monoclonal antibody
- Kd [10]: 10.2 nM
- Kd [11]: 14.3 nM
- EC50 (read off the curve) [6]: ~0.3 nM
- EC50 (read off the curve) [7]: ~0.3 nM

B13: PD-1 mAb 4 (antibody, V domains shown)
VH: B12 VH with S100T
VL: B12 VL with L38F, F91Y
notes: Murine monoclonal antibody
- EC50 (read off the curve) [6]: ~0.3 nM
- EC50 (read off the curve) [7]: ~0.3 nM
